Reference: paper PMC8624160

These binders were tested against thrombin (UniProt P00734;P00734 328-363;364-622) (assay: fluorescence attenuation kinetics (kapp); Binding buffer, salt, pH and temperature not given in the material (PBS listed among reagents); ex/em 333/426 nm, constant SITS-aptamer, thrombin titrated, trip).
Binder AGTCCGTGGTAGGGCAGGTTGGGGTGACT (structured_DNA, 5' NH2-(CH2)6 linker coupled to SITS) [SITS-Thrombin29 5'] has a Kd of 851 nM. In the case of AGTCCGTGGTAGGGCAGGTTGGGGTGACT (structured_DNA, 3' (CH2)6-NH2 linker coupled to SITS) [SITS-Thrombin29 3'], the Kd is reported as 180 nM. GTCCGTGGTAGGGCAGGTTGGGGTGAC (structured_DNA, 5' NH2-(CH2)6 linker coupled to SITS) [SITS-Thrombin27 5'] showed a Kd of 1590 nM. With GTCCGTGGTAGGGCAGGTTGGGGTGAC (structured_DNA, 3' (CH2)6-NH2 linker coupled to SITS) [SITS-Thrombin27 3'] the Kd was 437 nM. GGTTGGTGTGGTTGG (structured_DNA, 5' NH2-(CH2)6 linker coupled to SITS) [SITS-Thrombin15 5'] gave a Kd of 10800 nM. GGTTGGTGTGGTTGG (structured_DNA, 3' (CH2)6-NH2 linker coupled to SITS) [SITS-Thrombin15 3'] was tested, and the Kd was 4980 nM.
